Test results published in patent US7977317B2, “Compositions and methods for modulating blood-brain barrier transport” (Raptor Pharmaceutical Inc., priority 2001, dated 2011).

Assays:
BBCEC monolayers [1] = assay: Transcytosis across BBCEC monolayers (in vitro BBB model); assay type: cell-based, bovine; conditions: 200-fold molar excess of competitor, [125I]-p97 25 nM (FIG. 15a, 15b)
Description: FIG. 10 assesses the ability of several agents to interfere with p97 transyctosis. FIG. 10a, transcytosis of I125-P97 was compared in the presence of cold p97 (5 micromolar), Lf (5 micromolar), and Tf (5 micromolar). […] FIG. 10c, RAP, a known poly-peptide inhibitor of the LDL-Receptor family was applied to the cells (25 micrograms/ml).
FIG. 11 examines the accumulation and transcytosis of p97. FIG. 11a, of [^125I]-p97, [^125I]-BSA and [^125I]-holo-transferrin one hour after i.v. injection. The radioactivity in brain was compared between the three compounds. (n=3); FIG. 11b, Accumulation of p97 and transferrin into the mouse brain parenchyma. In situ brain perfusion was performed with human [^125I]-p97 or [^125I]-holo-transferrin at a final concentration of 10 nM via a catheter inserted in the right common carotid artery. The volume of distribution (VD) of [^125I]-proteins were obtained in the whole brain homogenate (white bars), in brain capillaries (solid bars) and in brain parenchyma (hatched bars) after isolation of the right hemisphere and capillary depletion. Results were obtained for p97 (n=10) and for holo-transferrin (n=6); FIG. 11c, Transcytosis of p97 across BBCEC monolayers. Transcytosis experiments were performed 37° C. (open circles) and 4° C. (closed circles) with BBCEC monolayers. [^125I]-p97 (1 mg/ml) was added to the upper side of the cell-covered filter. One representative experiment is shown (n=4); FIG. 11d, Preferential transport of p97 across the BBCEC monolayers. Apical-to-basal and basal-to-apical transport of [^125I]-p97 (25 nM) was measured for 2 hrs at 37° C. At the end of the experiment, [^125I]-p97 was assessed in the lower or upper chambers of each well by TCA precipitation (n=4).
(§1) FIG. 13 illustrates the transcytosis and accumulation of p97 and transferrin in BBCEC monolayers. FIG. 13a, Transcytosis experiments were performed at 37° C. (solid bars) or 4° C. (white bars). [^125I]-p97 or bovine [^125I]-holo-transferrin (1 mg/ml) was added to the upper side of the cell-covered filter. At the end of the experiment, radiolabelled proteins were measured in the lower chamber of each well by TCA precipitation (n=4). Controls were also performed at 37° C. with denatured [^125I]-p97 or bovine [^125I]-holo-transferrin boiled for 30 min (grey bars) (n=2); FIG. 13b, Biospecific interaction analysis was performed with native or boiled p97 for the indicated times. MAb L235 (5 μg) was immobilized on a sensor chip (SM5) using standard procedures incorporating NHS, EDC and ethanolamine. Native and boiled p97 (5 to 30 min) diluted at 1 mg/ml in Ringer/Hepes was cooled and injected into the BIAcore. The surface plasmon resonance response obtained for native p97 and boiled p97 was plotted (in relative units (RU)) as a function of time; FIG. 13c, The accumulation of both proteins into BBEC cells were also measured. Briefly, after incubation at 37° C. (solid bars) or 4° C. (white bars) with either [^125I]-protein, cells were washed four times with cold PBS. Accumulation of both denatured proteins (grey bars) was also measured at 37° C. Filters were then removed, and the radioactivity associated with the cells was quantified (n=3).
FIG. 14 illustrates the stability of p97 and integrity of the BBCEC monolayers following p97 transcytosis. FIG. 14a, Transcytosis experiments were performed at 37° C. and 4° C. by adding p97 (1 mg/ml) to the upper compartment. At the end of the experiment, 50 μl from each lower chamber was used for SDS-polyacrylamide gel electrophoresis. After electrophoresis, the gels were stained with Coomassie Blue. A standard curve was also made with known amounts of recombinant p97 (0-2 μg); FIG. 14b. The gels were dried and scanned to quantify the amount of intact p97 that crossed the BBCEC monolayers at 37° C. and 4° C. (n=3); FIG. 14c, Effect of p97 on sucrose permeability of BBCE cell monolayers co-cultured with astrocytes. […]

BBCEC monolayers [2] = assay: Accumulation of ligands in BBCEC monolayers; assay type: cell-based, bovine; conditions: native proteins (FIG. 13c)
Procedure: (§2) FIG. 7 illustrates the results of experiments where the ligands p97, Lf and Tf were heated or not heated prior to the binding study. In all cases, binding experiments were conducted in the transwell apparatus as described previously, with the exception that binding was conducted at either 4° C. or at 37° C. For the 37° C. trial, a separate experiment was conducted where the ligand was boiled for 30 mins then rapidly cooled prior to administration on the transwell plates.
as §1
as §2, with “In” for “FIG. 7 illustrates the results of experiments where the ligands p97, Lf and Tf were heated or not heated prior to the binding study. In”

B1: bovine holo-transferrin: bovine holo-transferrin (protein, UniProt Q29443 20-704, looked up)
Serotransferrin: DPERTVRWCTISTHEANKCASFRENVLRILESGPFVSCVKKTSHMDCIKAISNNEADAVTLDGGLVYEAGLKPNNLKPVVAEFHGTKDNPQTHYYAVAVVKKDTDFKLNELRGKKSCHTGLGRSAGWNIPMAKLYKELPDPQESIQRAAANFFSASCVPCADQSSFPKLCQLCAGKGTDKCACSNHEPYFGYSGAFKCLMEGAGDVAFVKHSTVFDNLPNPEDRKNYELLCGDNTRKSVDDYQECYLAMVPSHAVVARTVGGKEDVIWELLNHAQEHFGKDKPDNFQLFQSPHGKDLLFKDSADGFLKIPSKMDFELYLGYEYVTALQNLRESKPPDSSKDECMVKWCAIGHQERTKCDRWSGFSGGAIECETAENTEECIAKIMKGEADAMSLDGGYLYIAGKCGLVPVLAENYKTEGESCKNTPEKGYLAVAVVKTSDANINWNNLKDKKSCHTAVDRTAGWNIPMGLLYSKINNCKFDEFFSAGCAPGSPRNSSLCALCIGSEKGTGKECVPNSNERYYGYTGAFRCLVEKGDVAFVKDQTVIQNTDGNNNEAWAKNLKKENFEVLCKDGTRKPVTDAENCHLARGPNHAVVSRKDKATCVEKILNKQQDDFGKSVTDCTSNFCLFQSNSKDLLFRDDTKCLASIAKKTYDSYLGDDYVRAMTNLRQCSTSKLLEACTFHKP
modifications: iron-loaded (holo)
**Q.** B1 was tested. Which “Reduction of apical-to-basal transport of [125I]-p97” value (BBCEC monolayers [1]) did it give?
**A.** had no impact

**Q.** And the “Accumulation in BBCE cells” value (BBCEC monolayers [2])?
**A.** no significant accumulation
